Fold change of affinity against TSP7 WT and loss of dense fluorescent puncta of P-cadherin WT-mGFP data for two substances are collected here from PMC5206748.

One test addresses TSP7 S77R (scFv) (mouse). The test can be described thus: SPR; scFv (100 nM) captured on anti-His6-tag antibody on a CM5 chip; analyte 1.25-20 nM strand-swap dimer or 6.25-100 nM monomer construct; global fitting. On the technique in general: SPR reads the build-up and loss of mass on a sensor chip optically.
Test [1] deals with human P-cadherin expressed on CHO cells (human) (UniProt P22223).

Sequence of human P-cadherin expressed on CHO cells (P22223 108-829): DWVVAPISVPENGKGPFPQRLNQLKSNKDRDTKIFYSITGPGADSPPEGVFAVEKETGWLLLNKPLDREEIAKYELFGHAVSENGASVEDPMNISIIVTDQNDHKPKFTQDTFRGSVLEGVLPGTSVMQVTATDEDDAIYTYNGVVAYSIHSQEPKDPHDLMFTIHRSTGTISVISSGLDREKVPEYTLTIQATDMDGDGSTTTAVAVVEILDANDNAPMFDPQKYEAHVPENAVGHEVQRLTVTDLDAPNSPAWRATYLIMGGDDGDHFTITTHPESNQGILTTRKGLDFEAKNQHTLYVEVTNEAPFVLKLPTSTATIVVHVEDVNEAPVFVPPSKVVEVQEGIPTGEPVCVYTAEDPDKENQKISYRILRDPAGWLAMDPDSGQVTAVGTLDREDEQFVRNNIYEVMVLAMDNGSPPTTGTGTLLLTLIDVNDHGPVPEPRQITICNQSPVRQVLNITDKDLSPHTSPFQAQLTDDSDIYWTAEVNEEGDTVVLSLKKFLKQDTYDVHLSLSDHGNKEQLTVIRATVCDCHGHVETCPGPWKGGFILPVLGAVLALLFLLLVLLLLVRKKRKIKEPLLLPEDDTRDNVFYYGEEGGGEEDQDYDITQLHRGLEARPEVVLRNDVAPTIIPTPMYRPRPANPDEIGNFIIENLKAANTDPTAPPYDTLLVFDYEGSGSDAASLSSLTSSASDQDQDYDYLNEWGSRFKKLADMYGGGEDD
Sequence of TSP7 S77R (scFv) (mouse) (heavy, as listed by the source): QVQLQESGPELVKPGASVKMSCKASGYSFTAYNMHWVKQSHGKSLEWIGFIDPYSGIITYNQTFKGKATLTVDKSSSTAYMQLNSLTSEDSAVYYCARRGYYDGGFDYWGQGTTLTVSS

Substance “human P-cadherin EC12 K14E (domain or fragment)” had a fold change of affinity against TSP7 WT with TSP7 S77R (scFv) (mouse) of 2 fold lower.

“human P-cadherin expressed on CHO cells (from UniProt P22223 108-829) (natural protein)”: the loss of dense fluorescent puncta of P-cadherin WT-mGFP at cell-cell boundaries of CHO cells after 100 nM TSP7 (0-120 min) in test [1] was found to be 90%.
